This is an account of results in doi:10.1101/2021.08.08.454510.

For the test, the target named is fluorophore-conjugated GCK peptide (aa 59-74), wild type (human) (UniProt P35557). Nature of the test: fluorescence polarisation. For orientation: Fluorescence polarisation rises when a labelled molecule tumbles more slowly, as on binding a larger partner.

For orientation: Kd means the free concentration of one partner at which half of the binding sites on the other are occupied at equilibrium, for simple one-to-one binding.

For “TNKS ARC1-5 with a C-terminal (His)6 tag (from UniProt O95271 1-1327) (domain or fragment)”, the Kd stood at 500 nM.
